{"source": "paper doi:10.1101/2024.05.17.594632", "about": "(bioRxiv, 2024)", "proteins": {"B1": {"name": "full-length phytochrome from Pseudomonas aeruginosa (PaBphP) (enzyme)", "chain": "MTSITPVTLANCEDEPIHVPGAIQPHGALVTLRADGMVLAASENIQALLGFVASPGSYLTQEQVGPEVLRMLEEGLTGNGPWSNSVETRIGEHLFDVIGHSYKEVFYLEFEIRTADTLSITSFTLNAQRIIAQVQLHNDTASLLSNVTDELRRMTGYDRVMAYRFRHDDSGEVVAESRREDLESYLGQRYPASDIPAQARRLYIQNPIRLIADVAYTPMRVFPALNPETNESFDLSYSVLRSVSPIHCEYLTNMGVRASMSISIVVGGKLWGLFSCHHMSPKLIPYPVRMSFQIFSQVCSAIVERLEQGRIAELLRVSTERRLALARRARDADDLFGALAHPDDGIAALIPCDGALVMLGGRTLSIRGDFERQAGNVLQRLQRDPERDIYHTDNWPQPSEDSPDGGDCCGVLAIRFHRQESGWIFWFRHEEVHRIRWGGKPEKLLTIGPSGPRLTPRGSFEAWEEVVRGHSTPWSETDLAIAEKLRLDLMELCLNHAAEVDRMRQRLIAVLGHDLRNPLQSISMAAALLSSSDTRTTELRQHISASSSRMERLVSQILDMSRLQSGIGLTVNPVDTDVSQLVRQIVCETDVAYPGLVIEIAIDPQVRAVVDPDRYAQVAANLLSNARHHGLPGRPVLVTLTRQGDEVCLSVLNETSGLSEAQLANLFEPFKRESADNQRNRNGLGIGLYISQAIAQAHQGRIDVDCRDDVITFCLRLPVRQAETGSSS", "modifications": "biliverdin chromophore (15Z in Pr, 15E in Pfr)"}}, "target": "the molecule itself", "assay": "cryo-EM structure"}
{"protein": "B1", "values": [{"measurement": "stoichiometry N", "result": 2}]}
